The source of these data is PMC5615210, “Design and Characterization of a Human Monoclonal Antibody that Modulates Mutant Connexin 26 Hemichannels Implicated in Deafness and Skin Disorders” (Frontiers in Molecular Neuroscience, 2017).

Ends that are not written are not given here. * marks the point of attachment. Biotin = O=C1N[C@H]2[C@H](CS[C@H]2CCCCC(=O)*)N1

The target in assay [1] is T1, pepEC1.1, peptide corresponding to residues 41-56 of Cx26 (Homo sapiens).
T1 construct: connexin 26 (Cx26), residues 41-56 in the EC1 domain; also called bait peptide; cognate peptide; source: synthetic peptide (Chinese Peptide Company)
T1 chain: Biotin-KEVWGDEQADFVCNTL
Briefly: ELISA; avidin-coated wells (1 ug/well), biotinylated pepEC1.1 captured (0.05 ug/well), abEC1.1 (1 mg/ml, diluted 1:100 in M-PBST) 1 h at 37 C, goat anti-human HRP conjugate, ABTS, OD at 405 nm. The following applies: both partners purified. For orientation: ELISA stands for enzyme-linked immunosorbent assay.

The target in assay [2] is endogenous Cx26 of mouse cochlear organotypic cultures (Mus musculus C57BL6/N, UniProt Q00977). Briefly: immunostaining of cells or tissue; cochlear organotypic cultures of P5 mice fixed in 4% PFA, not permeabilised, abEC1.1 (2 ug/ml) overnight at 4 C, fluorescein anti-human IgG secondary antibody, confocal microscopy; control with abEC1.1 pre-incubated overnight with pepEC1.1 at 1:10 (w/w). The following applies: one partner purified.

B1: abEC1.1 antibody (scFv-Fc fusion protein) (scFv, V domains shown)
VH: QVQLQQSGGGVVQPGRSLRLSCAASGFTFSSYAMHWVRQAPGKGLEWVAVISHGGSNKYYADSVKGRFTISRDNSKNTLYLQMNSLRAEDTAVYYCARDFSWRGYYMDVWGKGTLVTVSS
VL: ETTLTQSPATLSLSPGERATLSCRASQSISSYLAWYQQKPGQAPRLLIYGASTRATGIPDRFSGSGSGTDFTLTISRLEPEDFAVYYCQQYGSSPRTFGGGTKVEIK
notes: scFv domain of abEC1.1 (VH and VL joined by a linker of seven amino acids); scFv-Fc format from a modified pFUSE vector (pfuse-hg1fc2); also called wild type abEC1.1; source: FreeStyle 293-F cells, transfected, purified (HiTrap Protein A HP); not shown: Fc (hinge and Fc of human IgG1), C-terminal, kept
As for B1, the binding result in assay [1] and in assay [2] was “binds” in each case.
